Results from patent publication US20230055411A1 (UNIVERSIT DE BRETAGNE OCCIDENTALE UBO, published 2023).

Experiments:
[1] = target: T1, recombinant STIM1 EF/SAM peptide (STIM1 aa 58 to 201) (human, UniProt Q13586 58-201); experiment: Octet (BLI), 1 to 1 fitting model, EF-SAM peptide at 200, 133.5 and 88.9 nM
T1 construct: also called STIM1 EF/Hand peptide; soluble recombinant protein corresponding to the STIM1 EF-Hand domain
Description: (§1) FIG. 10 represents the determination of the anti-STIM1 mAb clone B-Y12 affinity. […] High affinity interaction is characterized by a low K, a fast recognizing (high kon) and a stable formation of complexes (low kdis). kdis: dissociation rate constant. kon: complex formation rate.
(§2) Affinity constants (Kon, Kdis) were calculated.

[2] = target: T2, STIM1 peptide 1A (STIM1 amino acids 128 to 168) (human, biotinylated in the ELISA of FIG. 3A (position not given)); experiment: ELISA, Peptide 1A (aa 128-168) coated at 1 µg/mL, B-Y12 titrated
T2 construct: Immunization peptide from the SAM domain of STIM1
T2 sequence (peptide, as listed by the source): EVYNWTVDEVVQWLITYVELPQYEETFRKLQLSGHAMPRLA
Description: (§3) FIG. 3 illustrated the validation by Elisa of the monoclonal anti-STIM1 antibody clone B-Y12. […] Anti-STIM1 mAb clone B-Y12 mAb (10 μg/ml) was diluted to 1/10 and antigens STIM1 biotinylated peptides used at concentrations of 50 ng/well for peptides 1A and 1B and 100 ng/well for peptide 2A and 10 ng/well for peptide 2B). Panel B: Specificity of the B-Y12 antibody for STIM1 is confirmed by ELISA using the peptide 1A and a recombinant STIM1 EF/SAM peptide (1 μg/mL). B-Y12 mAb used at 100 μg/mL diluted to 1/10. Panel C: Specificity for the B-Y12 antibody for the peptide 1A over the other peptides (1A, 1B, 2A, 2B, C2, C3, C4, C5, C6, C7 and C8. Peptides are used at a concentration of 1 μg/mL. Histograms represents mean optical density (OD) measured using an Elisa approach.

[3] = target: T1, recombinant STIM1 EF/SAM peptide (STIM1 …); experiment: Octet, 1 to 1 fitting model, EF-SAM peptide at 200 nM [table row 200]
Description: as §1, §2

[4] = target: T3, peptide 1B (biotinylated in the ELISA of Figure 3 panel A); experiment: ELISA, biotinylated peptide 1B at 50 ng/well, B-Y12 in 1/10 steps
T3 construct: also called STIM1 aa 169 to 197
T3 sequence (peptide, as listed by the source): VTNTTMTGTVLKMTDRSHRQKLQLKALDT
Description: as §3

[5] = target: T4, peptide 2B (biotinylated in the ELISA of Figure 3 panel A); experiment: ELISA, biotinylated peptide 2B at 10 ng/well, B-Y12 in 1/10 steps
T4 construct: also called STIM1 aa 97 to 127
T4 sequence (peptide, as listed by the source): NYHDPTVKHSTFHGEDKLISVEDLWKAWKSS
Description: as §3

[6] = target: T5, peptide 2A (biotinylated in the ELISA of Figure 3 panel A); experiment: ELISA, biotinylated peptide 2A at 100 ng/well, B-Y12 in 1/10 steps
T5 construct: also called STIM1 aa 62 to 95
T5 sequence (peptide, as listed by the source): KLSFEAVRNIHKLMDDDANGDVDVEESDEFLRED
Description: as §3

[7] = target: T1, recombinant STIM1 EF/SAM peptide (STIM1 …); experiment: Octet, 1 to 1 fitting model, EF-SAM peptide at 88,8 nM [table row 88,8]
Description: as §1, §2

[8] = target: T1, recombinant STIM1 EF/SAM peptide (STIM1 …); experiment: Octet, 1 to 1 fitting model, EF-SAM peptide at 133,5 nM [table row 133,5]
Description: as §1, §2

[9] = target: T1, recombinant STIM1 EF/SAM peptide (STIM1 …); experiment: Octet, 1 to 1 fitting model, EF-SAM peptide at 200 nM; column kdis(1/S) [table row 200]
Description: as §1, §2

[10] = target: T1, recombinant STIM1 EF/SAM peptide (STIM1 …); experiment: Octet, 1 to 1 fitting model, EF-SAM peptide at 88,8 nM; column kdis(1/S) [table row 88,8]
Description: as §1, §2

[11] = target: T1, recombinant STIM1 EF/SAM peptide (STIM1 …); experiment: Octet, 1 to 1 fitting model, EF-SAM peptide at 133,5 nM; column kdis(1/S) [table row 133,5]
Description: as §1, §2

[12] = target: T6, STIM1 protein, mouse (plasma membrane STIM1 on spleen B and T cells of MRL/Lpr and C57Bl/6 mice) (mouse, UniProt P70302 23-685); experiment: direct flow cytometry with PE coupled B-Y12, spleen B cells of MRL/Lpr mice (n=4) [B cells]
T6 construct: whole, on cells; also called mSTIM1 (mouse)
T6 sequence (P70302 23-685): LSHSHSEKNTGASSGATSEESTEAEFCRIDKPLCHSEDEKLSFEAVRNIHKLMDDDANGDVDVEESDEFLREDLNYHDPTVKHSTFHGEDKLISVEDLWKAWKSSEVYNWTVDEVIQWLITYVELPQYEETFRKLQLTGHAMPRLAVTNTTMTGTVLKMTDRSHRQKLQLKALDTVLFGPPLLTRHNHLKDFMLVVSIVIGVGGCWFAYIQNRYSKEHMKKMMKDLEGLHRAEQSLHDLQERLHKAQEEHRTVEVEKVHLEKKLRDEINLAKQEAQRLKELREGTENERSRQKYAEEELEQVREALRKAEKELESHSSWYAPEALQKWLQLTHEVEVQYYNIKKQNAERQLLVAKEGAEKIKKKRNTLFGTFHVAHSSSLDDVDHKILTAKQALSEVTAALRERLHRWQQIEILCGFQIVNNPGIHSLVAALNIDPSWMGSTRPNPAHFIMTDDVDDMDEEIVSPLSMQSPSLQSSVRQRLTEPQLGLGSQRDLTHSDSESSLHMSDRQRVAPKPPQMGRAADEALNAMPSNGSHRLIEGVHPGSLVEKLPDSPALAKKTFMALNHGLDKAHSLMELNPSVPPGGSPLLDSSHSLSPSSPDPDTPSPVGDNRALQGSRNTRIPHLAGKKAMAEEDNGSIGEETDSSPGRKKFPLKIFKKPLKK

T1 sequence (Q13586 58-201): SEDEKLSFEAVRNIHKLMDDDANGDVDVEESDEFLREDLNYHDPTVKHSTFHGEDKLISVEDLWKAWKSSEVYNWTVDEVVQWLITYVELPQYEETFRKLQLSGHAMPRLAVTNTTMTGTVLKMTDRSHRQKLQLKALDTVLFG

B1: monoclonal anti-STIM1 antibody clone B-Y12 (antibody, IgG2b, V domains shown)
VH: QVQLQQPGAELVKPGASVKLSCKASGYTFTSYWMHWVKLRPGQGFEWIGETNPRNGGTNYNEKFKRKATLTVDKSSSTAYMQLSSLTSEDSAVYYCTITKTVRATWYFDYWGQGTTLTVSS
VL: DVLMTQTPLSLPVSLGDQASISCRSSQSIVHSNGNTYLEWYLQKPGQSPKLLIYKVSNRFSGVPDRFSGSGSGTDFTLKISRVEAEDLGVYYCFQGSHVPYTFGGGTKLEIK
notes: In direct flow cytometry it was used coupled to phycoerythrin (PE); also called B-Y12 mAb; anti-STIM1 mAb clone B-Y12
[1]
  Kd: 15 nM
[2]
  EC50 (read off the curve): ~4 ng/mL
[3]
  kon: 20000 M⁻¹ s⁻¹
[4]
  binding result: no binding
[5]
  binding result: no binding
[6]
  binding result: no binding
[7]
  kon: 18800 M⁻¹ s⁻¹
[8]
  kon: 23700 M⁻¹ s⁻¹
[9]
  koff: 0.0004 s⁻¹
[10]
  koff: 0.000354 s⁻¹
[11]
  koff: 0.000322 s⁻¹
[12]
  binding result: binds
